Results on 20 molecules are retold here after patent US20230265179A1 (TWIST BIOSCIENCE, published 2023).

Numbering of substitutions follows the chain as printed.

First the molecules themselves.
B1: IL1RL1-86 (Fc fusion, not shown: a dimerising Fc or GST)
VHH: EVQLVESGGGLVQPGGSLRLSCAASGGTFSTYAMGWFRQAPGKEREWVASISTSGSTITPYADSVKGRFTISADNSKNTAYLQMNSLKPEDTAVYYCAAIAYEEGVYRWDWGQGTLVTVSS
notes: VHH-Fc on IgG2 Fc
B2: IL1RL1-2 (Fc fusion, not shown: a dimerising Fc or GST)
VHH: B1 VHH with T31A
notes: VHH-Fc on IgG2 Fc
B3: IL1RL1-18 (Fc fusion, not shown: a dimerising Fc or GST)
VHH: B1 VHH with G27V, F29L, S30D, T31L, Y102H
notes: VHH-Fc on IgG2 Fc
B4: IL1RL1-52 (Fc fusion, not shown: a dimerising Fc or GST)
VHH: B1 VHH with F29I
notes: VHH-Fc on IgG2 Fc
B5: IL1RL1-1 (Fc fusion, not shown: a dimerising Fc or GST)
VHH: EVQLVESGGGLVQPGGSLRLSCAASGFTLDAWPMSWFRQAPGKEREVVAVIYTSDGSTYYADSVKGRFTISADNSKNTAYLQMNSLKPEDTAVYYCAASKWYGGFGDTDIEWGQGTLVTVSS
notes: VHH-Fc on IgG2 Fc
B6: IL1RL1-214 (antibody, V domains shown)
VH: EVQLLESGGGLVQPGGSLRLSCAASGFTFNAYPMTWVRQAPGKGLEWVSAISGRGDNTYYADSVKGRFTISRDNSKNTLYLQMNSLRAEDTAVYYCARPPKRGPRFDYWGQGTLVTVSS
VL: DIQMTQSPSSLSASVGDRVTITCKASENVDTYVSWYQQKPGKAPKLLIYGRNKRPSGVPSRFSGSGSGTDFTLTISSLQPEDFATYYCQQGHTLPWTFGQGTKVEIK
notes: IgG2
B7: IL1RL1-239 (antibody, V domains shown)
VH: EVQLLESGGGLVQPGGSLRLSCAASGFTFRRYVMGWVRQAPGKGLEWVSSISGSSGTTYYADSVKGRFTISRDNSKNTLYLQMNSLRAEDTAVYYCAKAYYGGFDYWGQGTLVTVSS
VL: DIQMTQSPSSLSASVGDRVTITCSASSSVSSSYLHWYQQKPGKAPKLLIYRKSNRPSGVPSRFSGSGSGTDFTLTISSLQPEDFATYYCQQSYSTPTFGQGTKVEIK
notes: IgG2
B8: IL1RL1-200 (antibody, V domains shown)
VH: EVQLLESGGGLVQPGGSLRLSCAASGFTFKSYGMHWVRQAPGKGLEWVSLIPHTGNPTYYADSVKGRFTISRDNSKNTLYLQMNSLRAEDTAVYYCARGGPRGNKYYFDYWGQGTLVTVSS
VL: DIQMTQSPSSLSASVGDRVTITCSGDKLGHTYTSWYQQKPGKAPKLLIYRKSNRPSGVPSRFSGSGSGTDFTLTISSLQPEDFATYYCYSRDRSGNHLGMFGQGTKVEIK
notes: IgG2
B9: IL1RL1-189 (antibody, V domains shown)
VH: EVQLLESGGGLVQPGGSLRLSCAASGFTFSSYFMSWVRQAPGKGLEWVSAISREGRATYYADSVKGRFTISRDNSKNTLYLQMNSLRAEDTAVYYCARIRVGPSGGAFDYWGQGTLVTVSS
VL: DIQMTQSPSSLSASVGDRVTITCKASDHIGKFLTWYQQKPGKAPKLLIYGRNKRPSGVPSRFSGSGSGTDFTLTISSLQPEDFATYYCQQSYSTPTFGQGTKVEIK
notes: IgG2
B10: IL1RL1-270 (antibody, V domains shown)
VH: EVQLLESGGGLVQPGGSLRLSCAASGFTFSRYFMGWVRQAPGKGLEWVSGITRSGSTNYRDSVKGRFTISRDNSKNTLYLQMNSLRAEDTAVYYCAKGPGTRGDYWGQGTLVTVSS
VL: DIQMTQSPSSLSASVGDRVTITCRASQPIGPDLLWYQQKPGKAPKLLIYGASRLQRGVPSRFSGSGSGTDFTLTISSLQPEDFATYYCASRNGWNHVVFGQGTKVEIK
notes: IgG2
B11: IL1RL1-262 (antibody, V domains shown)
VH: EVQLLESGGGLVQPGGSLRLSCAASGFTFSRYAMNWVRQAPGKGLEWVSAISGSGGNTYYADSVKGRFTISRDNSKNTLYLQMNSLRAEDTAVYYCARVWRNSLDYWGQGTLVTVSS
VL: DIQMTQSPSSLSASVGDRVTITCSGDRLGEKYVSWYQQKPGKAPKLLIYENNNRPSGVPSRFSGSGSGTDFTLTISSLQPEDFATYYCVARAVRGNPHVLFGQGTKVEIK
notes: IgG2
B12: IL1RL1-252 (antibody, V domains shown)
VH: EVQLLESGGGLVQPGGSLRLSCAASGFTFSRYHIEWVRQAPGKGLEWVSAISGRGDNTYYADSVKGRFTISRDNSKNTLYLQMNSLRAEDTAVYYCARHKGLQPLDYWGQGTLVTVSS
VL: DIQMTQSPSSLSASVGDRVTITCRASQDVSSGVAWYQQKPGKAPKLLIYPKHNRPPGVPSRFSGSGSGTDFTLTISSLQPEDFATYYCSARSVRGNPHVLFGQGTKVEIK
notes: IgG2
B13: IL1RL1-256 (antibody, V domains shown)
VH: EVQLLESGGGLVQPGGSLRLSCAASGFTFDRYRMTWVRQAPGKGLEWVSSIGANGAPTYYADSVKGRFTISRDNSKNTLYLQMNSLRAEDTAVYYCARGRLFDYWGQGTLVTVSS
VL: DIQMTQSPSSLSASVGDRVTITCQGASLRNYYASWYQQKPGKAPKLLIYGNNNRPSGVPSRFSGSGSGTDFTLTISSLQPEDFATYYCASRSSKGNPHVLFGQGTKVEIK
notes: IgG2
B14: IL1RL1-257 (antibody, V domains shown)
VH: B13 VH with D30S, R31P, Y32R, T35S, S50A, G52T, A53G, N54S, A56G, P57S
VL: DIQMTQSPSSLSASVGDRVTITCRASQSISGYLNWYQQKPGKAPKLLIYGNNNRPSGVPSRFSGSGSGTDFTLTISSLQPEDFATYYCSQNTHVPYTFGQGTKVEIK
notes: IgG2
B15: IL1RL1-221 (antibody, V domains shown)
VH: EVQLLESGGGLVQPGGSLRLSCAASGFTFPKYDMMWVRQAPGKGLEWVSSIRGSSSSTYYADSVKGRFTISRDNSKNTLYLQMNSLRAEDTAVYYCARAGRILFDYWGQGTLVTVSS
VL: DIQMTQSPSSLSASVGDRVTITCRASQTIERRLNWYQQKPGKAPKLLIYGRNKRPSGVPSRFSGSGSGTDFTLTISSLQPEDFATYYCGQSYRYPLTFGQGTKVEIK
notes: IgG2
B16: IL1RL1-269 (antibody, V domains shown)
VH: EVQLLESGGGLVQPGGSLRLSCAASGFTFDRYRMMWVRQAPGKGLEWVSAITGSGGSTYYADSVKGRFTISRDNSKNTLYLQMNSLRAEDTAVYYCAKGLRRFDYWGQGTLVTVSS
VL: B15 VL with T28S, I29V, E30D, R32Y, L33F, R51K, K53I
notes: IgG2
B17: IL1RL1-192 (antibody, V domains shown)
VH: EVQLLESGGGLVQPGGSLRLSCAASGFTFGNYAMAWVRQAPGKGLEWVSGITRSGSTNYRDSVKGRFTISRDNSKNTLYLQMNSLRAEDTAVYYCARDRYFRQQNAFDYWGQGTLVTVSS
VL: DIQMTQSPSSLSASVGDRVTITCQASQSISSYLAWYQQKPGKAPKLLIYGRNKRPSGVPSRFSGSGSGTDFTLTISSLQPEDFATYYCAQTGTHPTTFGQGTKVEIK
notes: IgG2
B18: IL1RL1-193 (antibody, V domains shown)
VH: EVQLLESGGGLVQPGGSLRLSCAASGFTFAKYKMWWVRQAPGKGLEWVSGITRSGSTNYRDSVKGRFTISRDNSKNTLYLQMNSLRAEDTAVYYCASLSRGYWGQGTLVTVSS
VL: DIQMTQSPSSLSASVGDRVTITCKASDHIGKFLTWYQQKPGKAPKLLIYHTSRLQSGVPSRFSGSGSGTDFTLTISSLQPEDFATYYCQQGFSNPWTFGQGTKVEIK
notes: IgG2
B19: IL1RL1-245 (antibody, V domains shown)
VH: EVQLLESGGGLVQPGGSLRLSCAASGFTLSSYAMSWVRQAPGKGLEWVSGITRSGSTNYRDSVKGRFTISRDNSKNTLYLQMNSLRAEDTAVYYCAKFPFTHGKFDYWGQGTLVTVSS
VL: DIQMTQSPSSLSASVGDRVTITCRASQGVRTSLAWYQQKPGKAPKLLIYRASTLASGVPSRFSGSGSGTDFTLTISSLQPEDFATYYCASRSSKGNPHVLFGQGTKVEIK
notes: IgG2
B20: IL1RL1-230 (antibody, V domains shown)
VH: EVQLLESGGGLVQPGGSLRLSCAASGFTFSGYIMAWVRQAPGKGLEWVSSISSTGFKTYYADSVKGRFTISRDNSKNTLYLQMNSLRAEDTAVYYCAKGNSRYVFDYWGQGTLVTVSS
VL: DIQMTQSPSSLSASVGDRVTITCKASDHIGKFLTWYQQKPGKAPKLLIYGRNKRPSGVPSRFSGSGSGTDFTLTISSLQPEDFATYYCNSRDTSGLHYVFGQGTKVEIK
notes: IgG2

In the first assay the target is T1, IL1RL1 (UniProt Q01638 19-328, limits assumed).
T1 construct: SPR analyte
T1 sequence (looked up): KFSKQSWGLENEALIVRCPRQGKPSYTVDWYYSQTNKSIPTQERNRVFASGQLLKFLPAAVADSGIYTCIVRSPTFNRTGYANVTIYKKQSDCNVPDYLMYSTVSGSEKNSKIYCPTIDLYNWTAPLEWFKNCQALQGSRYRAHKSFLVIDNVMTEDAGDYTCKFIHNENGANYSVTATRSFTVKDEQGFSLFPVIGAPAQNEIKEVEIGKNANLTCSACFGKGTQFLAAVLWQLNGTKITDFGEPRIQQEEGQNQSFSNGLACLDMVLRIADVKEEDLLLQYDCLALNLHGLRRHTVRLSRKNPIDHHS
Description: SPR (Carterra LSA), antibody amine-coupled, 1:1 model.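 Also: HC30M sensor chip at 25 °C in HBS-TE, analyte at rising concentrations in buffer containing 0.5 mg/mL BSA, 5 min association then 15 min dissociation.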
For B1, the Kd (commonly the equilibrium constant for the complex coming apart) was at most 0.0762 nM, the dissociation rate constant (koff) (usually the rate constant with which the complex falls apart) is at most 1e-05 s⁻¹ and the kon (usually the rate constant with which the complex forms) amounted to 131000 M⁻¹ s⁻¹.

B2: the Kd was 0.265 nM, the koff worked out at 3.11e-05 s⁻¹ and the on-rate constant (kon) was 118000 M⁻¹ s⁻¹.

For the molecule B3, the equilibrium dissociation constant (Kd) was 0.312 nM, the koff was 3.95e-05 s⁻¹ and the on-rate (kon) was determined as 126000 M⁻¹ s⁻¹.

B4 came in with a Kd of 0.121 nM, a koff of 3.48e-05 s⁻¹ and a kon of 288000 M⁻¹ s⁻¹.

B5 returned a Kd of 0.584 nM, a koff of 0.000101 s⁻¹ and a kon of 172000 M⁻¹ s⁻¹.

The target in another assay is T2, IL1RL1 over-expressed on Expi293 cells (UniProt Q01638 19-556, limits assumed).
T2 construct: whole, on cells; Target of the flow cytometry MFI ratio (over-expressing cells over parent cells); also called cytokine over-expressing Expi293 cells
T2 sequence (looked up): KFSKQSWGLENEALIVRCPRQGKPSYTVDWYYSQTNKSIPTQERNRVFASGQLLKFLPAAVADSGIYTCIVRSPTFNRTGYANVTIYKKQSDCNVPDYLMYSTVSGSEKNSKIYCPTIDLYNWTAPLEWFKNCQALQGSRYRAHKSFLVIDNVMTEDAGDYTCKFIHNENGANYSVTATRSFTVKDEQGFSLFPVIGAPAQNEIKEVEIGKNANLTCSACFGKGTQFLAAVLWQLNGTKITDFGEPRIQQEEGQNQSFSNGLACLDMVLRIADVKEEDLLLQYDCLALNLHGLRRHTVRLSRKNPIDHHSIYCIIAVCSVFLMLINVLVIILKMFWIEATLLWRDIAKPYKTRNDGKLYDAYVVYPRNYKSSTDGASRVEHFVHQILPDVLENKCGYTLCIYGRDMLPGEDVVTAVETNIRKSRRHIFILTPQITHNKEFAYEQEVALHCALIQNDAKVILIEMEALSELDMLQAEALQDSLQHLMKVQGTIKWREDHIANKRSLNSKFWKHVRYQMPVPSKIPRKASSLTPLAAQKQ
Description: flow cytometry, 100 nM antibody, over-expressing Expi293 / parent cells. On the technique in general: In flow cytometry, cells or beads pass a laser one at a time.
Description: All incubations and washes were in buffer containing PBS+1% BSA. MFI Ratio is defined by the mean fluorescence intensity (MFI) of the cytokine over-expressing Expi293 cell over the Expi293 parent cell. […] EC50 was calculated in GraphPad Prism.
For B6, the “100 nM FACS (MFI Ratio)” value is 1.34 MFI ratio.

With B7, the “100 nM FACS (MFI Ratio)” value was 1.93 MFI ratio.

Consider B1, for which the “100 nM FACS (MFI Ratio)” value is 204 MFI ratio.

As to B2, the “100 nM FACS (MFI Ratio)” value was determined as 277 MFI ratio.

As to B3, the “100 nM FACS (MFI Ratio)” value turned out to be 277 MFI ratio.

Consider B4, for which the “100 nM FACS (MFI Ratio)” value was found to be 225 MFI ratio.

For B8, the “100 nM FACS (MFI Ratio)” value worked out at 1 MFI ratio.

Regarding B9, the “100 nM FACS (MFI Ratio)” value came to 7.46 MFI ratio.

For the molecule B5, the “100 nM FACS (MFI Ratio)” value came out at 660 MFI ratio.

In the case of B10, the “100 nM FACS (MFI Ratio)” value stood at 0.31 MFI ratio.

B11: the “100 nM FACS (MFI Ratio)” value is 6.04 MFI ratio.

In the case of B12, the “100 nM FACS (MFI Ratio)” value worked out at 0.58 MFI ratio.

With B13, the “100 nM FACS (MFI Ratio)” value amounted to 0.6 MFI ratio.

As for B14, the “100 nM FACS (MFI Ratio)” value came to 1.38 MFI ratio.

Take B15: the “100 nM FACS (MFI Ratio)” value came to 0.51 MFI ratio.

Take B16: the “100 nM FACS (MFI Ratio)” value stood at 0.85 MFI ratio.

Regarding B17, the “100 nM FACS (MFI Ratio)” value is 0.55 MFI ratio.

Turning to B18, the “100 nM FACS (MFI Ratio)” value was determined as 1.62 MFI ratio.

B19: the “100 nM FACS (MFI Ratio)” value amounted to 1.28 MFI ratio.

As for B20, the “100 nM FACS (MFI Ratio)” value was 1.43 MFI ratio.
